Results from patent publication US20250270339A1 (Alector, published 2025).

Experiments:
[1] = target: T1, Full length Mouse TfR on CHO cells (mouse, UniProt Q62351 1-763); experiment: FACS MFI, supernatant
T1 construct: also called CHO + muTfR
Method: (§1) A total of 1536 anti-TfR hybridoma supernatants were initially screened for their ability to differentially bind CHO cells overexpressing human or mouse TfR cells compared to CHO parental cells by FACS. Overexpressing cells were harvested, washed and labeled with Pacific Blue, FITC and Pacific Orange dyes (ThermoFisher) to create uniquely barcoded cell populations. Barcoded cells (5×10⁴ of each cell population) were aliquoted into 96-well U-bottom plates and incubated with 50 μl of hybridoma cell culture supernatant or […] of commercially available purified mouse anti-human TfR monoclonal antibody (Sigma Aldrich, Cat #SAB4700515) and rat anti-mouse TfR antibody (Invitrogen, Waltham, MA, Cat #R17217) on ice for 30 minutes. After this primary incubation, the supernatants were removed via centrifugation, the cells were washed twice with 175 μl of ice-cold FACS buffer (PBS+1% FBS+2 mM EDTA), and the cells were then further incubated on ice for 20 minutes with anti-mouse IgG Fc-allophycocyanin (APC) or anti-rat IgG Fc-APC (Jackson Labs, Cat #115-136-071 and Cat #112-136-071, respectively) (diluted 1:1000). Following this secondary antibody incubation, the cells were again washed twice with ice-cold FACS buffer and resuspended in a final volume of 50 μl of FACS buffer. Binding intensity on cells was analyzed using the FACS Canto system (BD Biosciences), and the ratio of APC Mean Fluorescence Intensity (MFI) on each barcoded cell population was determined for each anti-TfR hybridoma supernatant tested.

[2] = target: T2, Full length human TfR on CHO cells (human, UniProt P02786 1-760); experiment: FACS MFI, supernatant
T2 construct: also called CHO + huTfR; CHO + hTfR
T2 sequence (P02786 whole entry): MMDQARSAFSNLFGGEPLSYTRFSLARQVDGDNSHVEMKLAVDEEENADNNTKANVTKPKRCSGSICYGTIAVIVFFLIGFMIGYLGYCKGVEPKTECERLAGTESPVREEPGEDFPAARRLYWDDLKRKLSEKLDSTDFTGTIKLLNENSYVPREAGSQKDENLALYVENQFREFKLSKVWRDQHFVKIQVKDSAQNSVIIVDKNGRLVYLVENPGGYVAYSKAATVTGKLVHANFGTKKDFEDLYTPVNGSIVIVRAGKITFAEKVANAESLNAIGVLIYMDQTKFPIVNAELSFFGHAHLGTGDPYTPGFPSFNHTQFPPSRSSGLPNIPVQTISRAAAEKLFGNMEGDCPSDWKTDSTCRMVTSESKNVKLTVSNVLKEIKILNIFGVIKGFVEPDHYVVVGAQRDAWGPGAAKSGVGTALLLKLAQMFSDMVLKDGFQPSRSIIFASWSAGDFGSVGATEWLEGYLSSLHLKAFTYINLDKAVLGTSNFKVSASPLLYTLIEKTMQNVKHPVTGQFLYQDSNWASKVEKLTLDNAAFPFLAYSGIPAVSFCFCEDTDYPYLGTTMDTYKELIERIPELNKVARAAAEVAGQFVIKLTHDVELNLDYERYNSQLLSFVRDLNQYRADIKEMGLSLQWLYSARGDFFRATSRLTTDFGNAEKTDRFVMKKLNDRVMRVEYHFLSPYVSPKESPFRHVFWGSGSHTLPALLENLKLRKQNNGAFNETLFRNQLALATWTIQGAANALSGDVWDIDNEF
Method: as §1

[3] = target: T1, Full length Mouse TfR on CHO cells; experiment: FACS, CHO+muTfR
Method: as §1

[4] = target: T3, huTfR Apical Domain-Avi-His (human, biotin on the Avi tag (BirA) where captured on streptavidin); experiment: ELISA OD450, supernatant
T3 construct: also called huTfR apical Avi-His; hTfR Apical
T3 chain: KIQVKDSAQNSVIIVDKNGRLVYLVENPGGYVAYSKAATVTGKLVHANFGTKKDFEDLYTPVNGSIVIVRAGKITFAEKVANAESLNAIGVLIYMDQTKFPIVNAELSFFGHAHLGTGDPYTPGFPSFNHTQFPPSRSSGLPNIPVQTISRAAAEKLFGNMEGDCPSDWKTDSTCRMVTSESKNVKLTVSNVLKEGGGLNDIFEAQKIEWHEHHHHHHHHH
Method: Hybridoma culture supernatants from 319 hybridomas obtained as described above were screened for their ability to bind Avi-His-tagged huTfR ECD, huTfR apical domain, and muTfR ECD (as described in Example 1) as compared to binding to an irrelevant Avi-His-tagged control protein. Briefly, 96-well polystyrene plates were coated with 5 μg/ml of streptavidin (Thermo Fisher, Cat #PI21125) in coating buffer (0.05M carbonate buffer, pH 9.6, Sigma, Cat #C3041) overnight at 4° C. Coated plates were then blocked with ELISA diluent (PBS+0.5% BSA+0.05% Tween20) for one hour. Blocking buffer was removed and Avi-His-tagged human TfR, human TfR apical domain, mouse TfR and an irrelevant Avi-His-tagged protein were added at 1 μg/ml in ELISA diluent and captured for 1 hour at room temperature. After washing three times with 300 μl of PBST (PBS+0.05% Tween20, Thermo 28352), the hybridoma cell culture supernatants were added (50 μl/well) to each well. After 30 minutes of incubation at room temperature, the plates were washed three times with 300 μl of PBST. Anti-mouse IgG Fc-HRP or anti-rat IgG Fc-HRP (Jackson Immunoresearch, Cat #115-035-071 and 112-036-071, respectively) secondary antibodies were diluted 1:5000 in ELISA diluent, added to each well at 50 μl/well, and incubated for 30 minutes at room temperature with shaking. After a final set of washes (3×300 μl in PBST), 50 μl/well of BioFx TMB substrate (Surmodics, Cat #TMBW-1000-01) was added to the wells. The reaction was then quenched after 5-10 mins with 50 μl/well of 2N sulfuric acid. The plates were read for absorbance at 450 nm on a SpectraMax M5 (Molecular Devices, Sunnyvale, CA) using SoftMax Pro software.

T1 sequence (Q62351 whole entry): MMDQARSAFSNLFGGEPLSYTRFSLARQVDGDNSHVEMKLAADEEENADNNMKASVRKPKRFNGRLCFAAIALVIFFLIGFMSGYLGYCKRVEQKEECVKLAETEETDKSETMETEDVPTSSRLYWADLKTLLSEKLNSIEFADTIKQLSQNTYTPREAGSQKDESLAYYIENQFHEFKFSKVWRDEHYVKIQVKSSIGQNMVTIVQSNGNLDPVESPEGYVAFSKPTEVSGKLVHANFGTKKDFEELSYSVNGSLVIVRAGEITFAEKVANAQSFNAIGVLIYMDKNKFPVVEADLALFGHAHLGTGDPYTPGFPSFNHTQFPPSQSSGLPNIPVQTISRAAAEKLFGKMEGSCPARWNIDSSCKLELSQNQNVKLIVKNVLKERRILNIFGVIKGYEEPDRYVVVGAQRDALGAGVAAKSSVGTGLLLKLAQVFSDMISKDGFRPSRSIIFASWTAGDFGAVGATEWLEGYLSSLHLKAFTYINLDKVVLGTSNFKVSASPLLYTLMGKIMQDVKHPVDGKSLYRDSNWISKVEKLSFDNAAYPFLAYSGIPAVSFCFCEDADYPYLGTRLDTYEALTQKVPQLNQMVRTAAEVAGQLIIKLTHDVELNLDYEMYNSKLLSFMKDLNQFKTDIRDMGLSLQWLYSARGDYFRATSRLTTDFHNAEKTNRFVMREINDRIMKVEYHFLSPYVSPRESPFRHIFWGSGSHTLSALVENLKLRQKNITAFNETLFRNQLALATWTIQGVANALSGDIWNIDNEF

B1: TfR13 (mouse hybridoma antibody) (antibody, V domains shown)
VH: DVKLVESGGGLVKPGGSLKLSCAASGFTFSSYTMSWVRQTPEKRLEWVATISSGGSYTYFPDSVKGRFTISRDNAKNTLYLQMSSLKSEDTAIYYCTRAHYYAYDYWGQGTTLTVSS
VL: DILLTQSPAILSVSPGERVSFSCRASQSIGTSIHWYQQRTNGSPRLLIKYASGSISGIPSRFSGSGSGTDFTLSINSVESEDIADYYCQQSNSWPTSTFGAGTKLELK
notes: mouse IgG in hybridoma supernatant
fold over parental (CHO WT) [1]: 1 fold | fold over parental (CHO WT) [2]: 392 fold | binding result [3]: no binding | ratio over irrelevant protein [4]: 22 fold

B2: TfR15 (mouse hybridoma antibody) (antibody, V domains shown)
VH: QVQLQQPGSELVRPGASVKLSCKASGYTFTSYWMHWVKQRPGQGLEWIGNIYPGSGSSNYDEKFKSKATLTVDTSSSTAYMQLNSLTSEDSAVYYCTRSSYYGNFDTMDNWGQGTSVTVSS
VL: QIVLTQSPAIMSASPGEKVTMTCSASSSIRYMNWYQQKPVTSPKRWIYDTSTLASGVPARFSGSGSGTSYSLTISSMEAEDAATYYCHQRSSYPWTFGGGTKLEIK
notes: as for B1
fold over parental (CHO WT) [1]: 1 fold | fold over parental (CHO WT) [2]: 119 fold | binding result [3]: no binding | ratio over irrelevant protein [4]: 34 fold

B3: TfR22 (mouse hybridoma antibody) (antibody, V domains shown)
VH: DVQLQESGPGLVKPSQSLSLTCTVTGYSITSDYAWNWIRQFPGNKLEWMGYISYSGSTRYNPSLKSRISITRDTSKNQFFLQLNSVTTEDTATYYCTSWGYRYLEDYWGQGTSVTVSA
VL: QIVLTQSPAIMSASPGERVTMTCSASSSISSMHWYQQKPGTSPKKWIYDTSKLASGVPARFSGSGSGTSYSLTISSMEAEDAATYYCHQRSSYPWTFGGGTKLEIK
notes: as for B1
fold over parental (CHO WT) [1]: 1 fold | fold over parental (CHO WT) [2]: 290 fold | binding result [3]: no binding | ratio over irrelevant protein [4]: 33 fold

B4: TfR17 (mouse hybridoma antibody) (antibody, V domains shown)
VH: DVQLQESGPGLVKPSQSLSLTCTVTGYSITSDYAWNWIRQFPGNKLEWMGYISYSGSTSYNPSLKSRISITRDTSKNQFFLQLNSVTTEDTATYYCASWGYRYLEDYWGQGTSVTVSS
VL: QIVLTQSPAIMSASPGEKVTMTCSASSSISSMHWYQQKPGTSPKRWISDTSKLASGIPARFSGSGSGTSYSLTISSMAAEDAAAYYCHQRSSYPWTFGGGTKLEIK
notes: as for B1
fold over parental (CHO WT) [1]: 1 fold | fold over parental (CHO WT) [2]: 73 fold | binding result [3]: no binding | ratio over irrelevant protein [4]: 26 fold

B5: TfR31 (mouse hybridoma antibody) (antibody, V domains shown)
VH: DVQLQESGPGLVKPSQSLSLTCTVTGYSITSDYAWNWIRQFPGNKLEWMGYISYSGRTSYNPSLKSRISFTRDTSKNQFFLQLNSVTTEDTATYYCAGWGYRYLEDYWGQGTSVTVSS
VL: QIVLTQSPAIMSASPGEKVTMTCSASSSISSMHWYQLKPGTSPKKWIYDTSKLASGVPARFSGSGSGTSYSLTISSMEAEDAATYYCHQRSSYPWTFGGGTKLEIK
notes: as for B1
fold over parental (CHO WT) [1]: 1 fold | fold over parental (CHO WT) [2]: 90 fold | binding result [3]: no binding | ratio over irrelevant protein [4]: 20 fold

B6: TfR23 (mouse hybridoma antibody) (antibody, V domains shown)
VH: DVQLQESGPGLVKPSQSLSLTCTVTGYSITSDYAWNWIRQFPGNKLEWMGYISYSGSTSYNPSLKSRISITRDTSKNQFFLQLNSVTTEDTATYYCTSWGYRYLEDYWGQGTSVTVSS
VL: QIVLTQSPAIMSASPGERVTMTCSASSSISSLHWYQQKPGTSPKKWIYDTSKLASGVPARFSGSGSGTSYSLAISSMEAEDAATYYCHQRSSYPWTFGGGTKLEIK
notes: as for B1
fold over parental (CHO WT) [1]: 1 fold | fold over parental (CHO WT) [2]: 279 fold | binding result [3]: no binding | ratio over irrelevant protein [4]: 31 fold

B7: TfR27 (mouse hybridoma antibody) (antibody, V domains shown)
VH: QVQLQQPGSELVRPGASVKLSCKASGYTFTSYWMHWVKQRPGQGLEWIGNIYPGTGSTNYDEKFKSKATLTVDTSSSTAYMQLSSLTSEDSAVYYCTRSSYYGNFDTMDYWGQGTSVTVSS
VL: QIFLTQSPAIMSASPGERVTMTCSASSSIRYMNWYQQKPGTSPKRWIYDTSELASGVPARFTGSGSGTSYSLTISSMEAEDAATYYCHQRSGYPWTFGGGTKLEIK
notes: as for B1
fold over parental (CHO WT) [1]: 1 fold | fold over parental (CHO WT) [2]: 279 fold | binding result [3]: no binding | ratio over irrelevant protein [4]: 34 fold

B8: TfR28 (mouse hybridoma antibody) (antibody, V domains shown)
VH: DVQLQESGPGLVKPSQSLSLTCTVTGYSITSDYAWNWIRQFPGNKLEWMGYISYSGSTSYNPSLRSRISITRDTSKNQFFLQLNSVTTEDTATYYCAIRGYRYEEDYWGQGTTLTVSS
VL: QIVLTQSPAIMSASPREKVTMTCSASSSISSMHWYQQKPGTSPKRWIYDTSKLASGVPARFSGSGSGTSYSLTISSMEAEDAATYYCHQRSSYPWTFGGGTKLEIK
notes: as for B1
fold over parental (CHO WT) [1]: 1 fold | fold over parental (CHO WT) [2]: 157 fold | binding result [3]: no binding | ratio over irrelevant protein [4]: 30 fold

B9: TfR16 (mouse hybridoma antibody) (antibody, V domains shown)
VH: EVQLQQSGTVLARPGASVKMSCKTSGYSFSSYWMHWVKQRPGQGLEWIGTIYPGNSDTIYNQNFKGKAKLTAVTSASTAYMELSSLTNEDSAVYYCSTIYYFSNWGQGTTLTVSS
VL: DIKMTQSPSPMFASLGERVTITCKASQDINSYLSWFQQKPGKSPKTLIYRANRLLDGVPSRFSGSGSGQDYSLTISSLDYEDVGIYYCLQYDVFPYTFGGGTKLEIK
notes: as for B1
fold over parental (CHO WT) [1]: 1 fold | fold over parental (CHO WT) [2]: 534 fold | binding result [3]: no binding | ratio over irrelevant protein [4]: 18 fold

B10: TfR32 (mouse hybridoma antibody) (antibody, V domains shown)
VH: QVQLQQSGADLVRPGTSVKVSCKASGNAFSNYLIEWVKQRPGQGLEWIGVINPGSGETNYNEKFKGKATLTADKSSSTAYMQLSSLTSDDSAVYFCAIRYDGPLLDHWGQGTSVTVSS
VL: SIVMTQTPKFLLVSAGDRVTITCKASQSVSNDVAWFQQKPGQSPKLLIYYASNRYTGVPDRFTGSGYGTDFTFTIRNVQAEDLAVYFCQQDYISPTFGAGTKLELK
notes: as for B1
fold over parental (CHO WT) [1]: 1 fold | fold over parental (CHO WT) [2]: 137 fold | binding result [3]: no binding | ratio over irrelevant protein [4]: 25 fold

B11: TfR25 (mouse hybridoma antibody) (antibody, V domains shown)
VH: QVQLQQSGPELVKPGTSVKMSCKASGYTFTNYYIHWMKQRPGQGLEWIGWIYPGDGNTHYNERFKGKTTLTADKSSSTVYMFLTSLTSEDSAIYFCAKDKDMPGMDYWGQGTSVTVSS
VL: DMVMTQSPSSLTVTAGEKVTMSCKSSQSLFNSENQKNYLTWYQQKPGQPPKLLISWASTRESGVPDRFTGSGSGTDFTLTINSVQAEDLAVYYCQNDYSYPLTFGAGTKLELK
notes: as for B1
fold over parental (CHO WT) [1]: 1 fold | fold over parental (CHO WT) [2]: 135 fold | binding result [3]: no binding | ratio over irrelevant protein [4]: 33 fold

B12: TfR26 (mouse hybridoma antibody) (antibody, V domains shown)
VH: QVQLHQSGPELVKPGASVKMSCKASGYTFTNYYIHWVKQRPGQGLEWIGWIYPGDGVTHYNEKFKGKTTLTADKSSSTAYMLLSSLTSEDSAIYFCARDKDVPGMDYWGQGTSVTVSS
VL: DIVMTQSPSSLTVTSGEKVTMSCKSSQSLLNSENQKNYLTWYQQKPGQPPKLLIYWASTRESGVPDRFTGSGSGPDFTLTISSVQAEDLAVYYCQNDYSYPLTFGAGTKLELK
notes: as for B1
fold over parental (CHO WT) [1]: 1 fold | fold over parental (CHO WT) [2]: 285 fold | binding result [3]: no binding | ratio over irrelevant protein [4]: 35 fold
